The term Kd denotes a measure of binding affinity in units of concentration. A lower Kd goes with a tighter complex.

For 3 molecules, Kd results are on record in paper PMC7872222 (Chembiochem : a European journal of chemical biology, 2020).

Assay [1] concerns the target T1, microtubule-associated protein 1A/1B light chain 3B protein (human, UniProt Q9GZQ8 1-120). In words: BLI. A general note: BLI is a label-free optical method that tracks binding on a fibre tip over time.
In assay [2] the target is GABARAP (human, UniProt O95166 1-117). In words: BLI.
Sequence of GABARAP (O95166 whole entry): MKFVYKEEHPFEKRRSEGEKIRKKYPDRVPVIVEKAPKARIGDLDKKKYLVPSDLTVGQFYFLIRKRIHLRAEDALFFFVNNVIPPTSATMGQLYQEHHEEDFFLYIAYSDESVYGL
The target of assay [3] is T1, microtubule-associated protein 1A/1B …. Description: fluorescence polarisation. Background: In fluorescence polarisation assays a small probe gives low polarisation when free and higher when bound to something large.

Ends that are not written are not given here.

B1: FYCO1 peptide C1289S (peptide)
peptide: DDAVFDIITDEELSQIQEW
HELM: PEPTIDE1{[O=C1N[C@H]2[C@H](CS[C@H]2CCCCC(=O)[*:2])N1].[bAla].[bAla].D.D.A.V.F.D.I.I.T.D.E.E.L.S.Q.I.Q.E.W.[am]}$$$$V2.0
SMILES: CC[C@H](C)[C@H](NC(=O)[C@H](CCC(N)=O)NC(=O)[C@H](CO)NC(=O)[C@H](CC(C)C)NC(=O)[C@H](CCC(=O)O)NC(=O)[C@H](CCC(=O)O)NC(=O)[C@H](CC(=O)O)NC(=O)[C@@H](NC(=O)[C@@H](NC(=O)[C@@H](NC(=O)[C@H](CC(=O)O)NC(=O)[C@H](Cc1ccccc1)NC(=O)[C@@H](NC(=O)[C@H](C)NC(=O)[C@H](CC(=O)O)NC(=O)[C@H](CC(=O)O)NC(=O)CCNC(=O)CCNC(=O)CCCC[C@@H]1SC[C@@H]2NC(=O)N[C@@H]21)C(C)C)[C@@H](C)CC)[C@@H](C)CC)[C@@H](C)O)C(=O)N[C@@H](CCC(N)=O)C(=O)N[C@@H](CCC(=O)O)C(=O)N[C@@H](Cc1c[nH]c2ccccc12)C(N)=O
As to B1, in assay [1], binding was characterised by a dissociation constant (Kd) of 330 nM.

B2: biotinylated K1 peptide (peptide)
peptide: DATYTWEHLAWP
HELM: PEPTIDE1{[O=C1N[C@H]2[C@H](CS[C@H]2CCCCC(=O)[*:2])N1].[bAla].[bAla].D.A.T.Y.T.W.E.H.L.A.W.P.[am]}$$$$V2.0
SMILES: CC(C)C[C@H](NC(=O)[C@H](Cc1c[nH]cn1)NC(=O)[C@H](CCC(=O)O)NC(=O)[C@H](Cc1c[nH]c2ccccc12)NC(=O)[C@@H](NC(=O)[C@H](Cc1ccc(O)cc1)NC(=O)[C@@H](NC(=O)[C@H](C)NC(=O)[C@H](CC(=O)O)NC(=O)CCNC(=O)CCNC(=O)CCCC[C@@H]1SC[C@@H]2NC(=O)N[C@@H]21)[C@@H](C)O)[C@@H](C)O)C(=O)N[C@@H](C)C(=O)N[C@@H](Cc1c[nH]c2ccccc12)C(=O)N1CCC[C@H]1C(N)=O
In assay [2], B2 had a Kd of 390 nM.

B3: fluorescein-labeled K1 peptide (peptide)
peptide: Fluorescein-DATYTWEHLAWP
B3 returned a Kd in assay [3] of 1200 nM.
